Assay [1] deals with FLAG-tagged influenza A virus M2 protein (influenza A virus (strain not stated)) (UniProt P05780). In words: co-IP.
The next assay concerns the target c-Myc-tagged cyclin D1 (UniProt P24385 1-295). The assay can be described thus: co-IP. The conditions noted are these: partners not purified.

c-Myc-tagged cyclin D1, sequence (P24385 whole entry): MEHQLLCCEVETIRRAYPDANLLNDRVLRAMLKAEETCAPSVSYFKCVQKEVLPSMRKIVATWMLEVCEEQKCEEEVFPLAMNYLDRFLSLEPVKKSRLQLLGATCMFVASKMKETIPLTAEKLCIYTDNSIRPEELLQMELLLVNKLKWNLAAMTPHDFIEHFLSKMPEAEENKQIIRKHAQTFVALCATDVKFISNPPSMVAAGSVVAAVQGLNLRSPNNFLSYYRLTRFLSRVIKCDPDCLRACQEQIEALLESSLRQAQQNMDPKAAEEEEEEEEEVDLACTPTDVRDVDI

Consider “FLAG- and c-Myc-tagged human cyclin D3 (from UniProt P30281-1 1-292) (natural protein)”, for which the percent reduction of M1 co-precipitated with M2 in assay [1] worked out at 70%.

B1: Influenza A/WSN/33 virus M2 protein made in infected cells (natural protein)
chain: MSLLTEVETPIRNEWGCRCNDSSDPLVIAANIIGILHLILWILDRLFFKCIYRRFKYGLKRGPSTEGVPESMREEYRKEQQNAVDVDDGHFVNIELE
Take B1: in the assay with c-Myc-tagged cyclin D1, the “M2 co-precipitated, relative to cyclin D3” value was ~50%.

The values above are taken from publication PMC5377818 (The Journal of Biological Chemistry, 2017).
